Here are results for 17 sequences from the supplement of paper PMC9170038.

The data set has as its system MS2 coat protein. Put plainly: apparent KD of MS2 coat protein; designed switch direction (-1 OFF switch, 1 ON switch): -1; higher = weaker reporter binding. In short, it runs like this: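 The apparent KD reported per design is the median over clusters of curve fits to normalised cluster fluorescence. The RNA switches were transcribed on Illumina chips by stalled E. coli RNA polymerase. SNAP-549-labelled MS2 coat protein was titrated from 0.7 or 1.5 nM, doubling up to 3 µM, in Tris-HCl pH 7.5 buffer containing KCl, MgCl2, BSA, DTT, tRNA and Tween-20, with no input, 200 uM small-molecule ligand, or an oligonucleotide input.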

Setting [1] is: input ligand: microRNA oligo, concentration not stated.
[2] abbreviates: Eterna round: R95, input ligand: FMN 200 uM.
Where [3] appears, read: Eterna round: R95, input ligand: microRNA oligo, concentration not stated.
Where [4] appears, read: Eterna round: R95, input ligand: none.

With “AAAAGGCAGGGAGGAUAUGCUUGCCUGGGUCGUCUUCAAACAUGAGGAUCACCCAUGUAGUCGACGCAGAAGGCCCUCAAAGAA [Mat - Exclusion NG 2 - Mod of JL - D62] (Eterna round: R96, puzzle: Exclusion NG 2)”, the “apparent KD of MS2 coat protein” value (input ligand: FMN 200 uM) came out at 0.0377 µM, the “apparent KD of MS2 coat protein” value under setting [1] was 0.0408 µM and the “apparent KD of MS2 coat protein” value (input ligand: none) was determined as 0.0572 µM.
Take “AAAAGGCGAGGAUAUACAGACCUCGGAAAAUCAAAGCAGAGACAUGAGGAUCACCCAUGUAGAAGGCGCAACAA [Geerbiorer] (Eterna round: R97, puzzle: Exclusion 2)”: the “apparent KD of MS2 coat protein” value by setting is: (input ligand: FMN 200 uM) 0.0208 µM; (input ligand: none) 0.0159 µM.
On to “AAAAUAAAAGUCAGGAUAUUCCUACAACGACUAAGGAAGAAGGGACAUGAGGAUCACCCAUGUGGUCUUCCGAA [Onesti] (puzzle: Brourd's mod of Exclusion 4)”, for which the “apparent KD of MS2 coat protein” value is 0.0425 µM under setting [2], 0.0178 µM under setting [3] and 0.0151 µM under setting [4].
In the case of “AAAAUAAAGAUGCCUUUAAACAUGAGGAUCACCCAUGUGAGUAAGGAUAUCGGAACCAAUCGCGACGAGAAGGUACUCGCGUGU [Relela] (Eterna round: R96, puzzle: Exclusion NG 3)”, the “apparent KD of MS2 coat protein” value was found to be 0.0121 µM (input ligand: FMN 200 uM), 0.0111 µM under setting [1] and 0.0157 µM (input ligand: none).
Regarding “AAAAUGGUCUAGGAUAUGACAAAUCUGAGCACGUCAGAAGGAGACACAUGAGGAUCACCCAUGUGGGUGCGAAA [Erteedza] (Eterna round: R96, puzzle: Exclusion 6)”, under setting [1], the “apparent KD of MS2 coat protein” value is 0.0293 µM.
Turning to “AAAAUGGUCUAGGAUAUGACAAAUCUGAGCACGUCAGAAGGAGACACAUGAGGAUCACCCAUGUGGGUGCGAAA [Erteedza] (puzzle: Exclusion 6)”, the “apparent KD of MS2 coat protein” value under setting [2] amounted to 0.324 µM, the “apparent KD of MS2 coat protein” value under setting [3] came out at 0.0318 µM and the “apparent KD of MS2 coat protein” value under setting [4] was determined as 0.0352 µM.
In the case of “AAAAUGUAAGGAUAUAGCCGGAACCCAGGGUUUGGACCCGGCUAGAAGGUACAUGAGGAUCACCCAUGUAAGAA [Excls4-VII] (puzzle: Exclusion 4)”, under setting [3], the “apparent KD of MS2 coat protein” value stood at 0.0174 µM.
As to “AAAAUGUCAGGAUAUUGUUAGUUUAGUUGUUUGUAUUAGUUCGAGAAGGGACAUGAGGAUCACCCAUGUGAAAA [Ex4 #68] (Eterna round: R97, puzzle: Exclusion 4)”, the “apparent KD of MS2 coat protein” value is 0.0425 µM (input ligand: FMN 200 uM) and 0.0358 µM (input ligand: none).
On to “AAACAAACGGCAGGAUAUCCUCGUCAACACCACAAGUCCACUCGGACAUGAGGAUCACCCAUGUAGGAGAAGGGUCAGAAAUAC [ExNG2 4th] (Eterna round: R96, puzzle: Exclusion NG 2)”, for which the “apparent KD of MS2 coat protein” value runs as follows: (input ligand: FMN 200 uM) 0.0372 µM; under setting [1], 0.0246 µM; (input ligand: none) 0.0371 µM.
As to “AAACAGGGAGGAUAUACAUAGAUCCUCUAACCUAAUAGGUCACAUGAGGAUCACCCAUGUAGAAGGCCCUUAGG [Biinbebi] (puzzle: Exclusion 2)”, the “apparent KD of MS2 coat protein” value under setting [3] is 0.0143 µM.
On the same count and under the same terms, as for “AAACAGGGAGGAUAUACAUAGAUCCUCUAACCUAAUUGGUCACAUGAGGAUCACCCAUGUAGAAGGCCCUUAGG [Enquanes] (puzzle: Exclusion 2)”, the figure is 0.0136 µM; as for “AAACCACAUGAGGAUCACCCAUGUGAGGAUAUGAUACUAUGUACUUCGGUACAUAGUAUCAGAAGGCAUAUGAA [Ex1-3: 48] (puzzle: Exclusion 1)”, 0.0244 µM.
Consider “AAACCCUGAGGAUAUACAUAACAACAAAGCCUCACGUGCCAACAUGAGGAUCACCCAUGUAGAAGGCGGGCCAA [Mod R3 Insanara 14 - Jieux - Exclusion 2] (Eterna round: R97, puzzle: Exclusion 2)”, for which the “apparent KD of MS2 coat protein” value by setting is: (input ligand: FMN 200 uM) 0.0373 µM; (input ligand: none) 0.0151 µM.
As to “AAACGGCAGGGAGGAUAUGCUUACCUGGGUCGUCUUCGAACAUGAGGAUCACCCAUGUAGUCGACGCAGAAGGCCCUCAAAGCC [JL ViennaUCT Ontiis mod 2] (Eterna round: R96, puzzle: Exclusion NG 2)”, the “apparent KD of MS2 coat protein” value was found to be 0.0474 µM (input ligand: FMN 200 uM), 0.0171 µM under setting [1] and 0.0215 µM (input ligand: none).
Turning to “AAACUACUAGGAUAUACAACGGUGUCCUAACUACUAAGAAAACAUGAGGAUCACCCAUGUAGAAGGAGUAGUGA [Lauslabe] (Eterna round: R96, puzzle: Exclusion 2)”, the “apparent KD of MS2 coat protein” value under setting [1] worked out at 0.0286 µM.
In the case of “AAACUCCCGGCAACCGGGAACAUGAGGAUCACCCAUGUGGCGUGACUCAUACGGGCUUUUUGUUCGUUUUAUUCACG [Xeisororer] (puzzle: Sensor v3, turn-off variant 1)”, the “apparent KD of MS2 coat protein” value is, setting by setting: under setting [2], 0.0534 µM; under setting [3], 0.0277 µM; under setting [4], 0.0636 µM.
As to “AAACUGAGGCUUUGCUUUAGUCGUACAUGAGGAUCACCCAUGUAGGAUAUGGUAGGCUUUGCUUACCAGAAGGACAGAGUGAUC [JL EXNG3 1.20] (Eterna round: R96, puzzle: Exclusion NG 3)”, the “apparent KD of MS2 coat protein” value was determined as 0.0805 µM (input ligand: FMN 200 uM), 0.404 µM under setting [1] and 0.279 µM (input ligand: none).
